Experimental data from IntAct's records for PubMed 25006247.

B1: Pyrin (Homo sapiens), O15553 (parent)
chain: MAKTPSDHLLSTLEELVPYDFEKFKFKLQNTSVQKEHSRIPRSQIQRARPVKMATLLVTYYGEEYAVQLTLQVLRAINQRLLAEELHRAAIQEYSTQENGTDDSAASSSLGENKPRSLKTPDHPEGNEGNGPRPYGGGAASLRCSQPEAGRGLSRKPLSKRREKASEGLDAQGKPRTRSPALPGGRSPGPCRALEGGQAEVRLRRNASSAGRLQGLAGGAPGQKECRPFEVYLPSGKMRPRSLEVTISTGEKAPANPEILLTLEEKTAANLDSATEPRARPTPDGGASADLKEGPGNPEHSVTGRPPDTAASPRCHAQEGDPVDGTCVRDSCSFPEAVSGHPQASGSRSPGCPRCQDSHERKSPGSLSPQPLPQCKRHLKQVQLLFCEDHDEPICLICSLSQEHQGHRVRPIEEVALEHKKKIQKQLEHLKKLRKSGEEQRSYGEEKAVSFLKQTEALKQRVQRKLEQVYYFLEQQEHFFVASLEDVGQMVGQIRKAYDTRVSQDIALLDALIGELEAKECQSEWELLQDIGDILHRAKTVPVPEKWTTPQEIKQKIQLLHQKSEFVEKSTKYFSETLRSEMEMFNVPELIGAQAHAVNVILDAETAYPNLIFSDDLKSVRLGNKWERLPDGPQRFDSCIIVLGSPSFLSGRRYWEVEVGDKTAWILGACKTSISRKGNMTLSPENGYWVVIMMKENEYQASSVPPTRLLIKEPPKRVGIFVDYRVGSISFYNVTARSHIYTFASCSFSGPLQPIFSPGTRDGGKNTAPLTICPVGGQGPD

Variants of: B1
Conditions: with asc_human PYCARD

| effect of a mutation on the interaction | Variant |
| --- | --- |
| decreasing interaction strength | R75A |
| increasing interaction strength | E22A |
| with no effect | R88A |
| disrupting interaction strength | K25A |
| with no effect | E84A |
| with no effect | R49A |
| with no effect | K3A |
| decreasing interaction strength | L71A |

The next lines start with the variant.

| Variant | effect of a mutation on the interaction |
| --- | --- |
| V58A | increasing interaction strength |
| L10A | decreasing interaction strength |
| Q29A | with no effect |
| H37A | with no effect |
| Q46A | with no effect |
| E63A | increasing interaction strength |
| E14A | decreasing interaction strength |
| R42A | decreasing interaction strength |
| R42W | decreasing interaction strength |
| K35A | with no effect |
| R80A | decreasing interaction strength |
| A89T | with no effect |

Variants of: B1
Conditions: with asc_human PYCARD
Remark: another data set of the same source

| effect of a mutation on the interaction | Variant |
| --- | --- |
| with no effect | R42W |
